Blank lines part the entries; values can stand above or below the molecule they belong to.
How the values were obtained:
[1] = biological target: T1, GDF11 (UniProt O95390 299-407); assay: cell-based or functional assay
T1 sequence (looked up): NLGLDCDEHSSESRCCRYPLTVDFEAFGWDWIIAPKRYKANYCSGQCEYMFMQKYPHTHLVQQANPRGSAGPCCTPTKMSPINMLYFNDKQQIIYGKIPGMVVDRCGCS

[2] = biological target: T2, activin A (UniProt P08476 311-426); assay: cell-based or functional assay
T2 sequence (looked up): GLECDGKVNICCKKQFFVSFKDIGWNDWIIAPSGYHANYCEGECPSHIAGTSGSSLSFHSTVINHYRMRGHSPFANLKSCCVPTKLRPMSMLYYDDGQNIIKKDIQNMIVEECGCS

[3] = biological target: T3, GDF3 (UniProt Q9NR23 251-364); assay: Biacore SPR; receptor-Fc captured by anti-Fc antibody, ligand injected
T3 sequence (looked up): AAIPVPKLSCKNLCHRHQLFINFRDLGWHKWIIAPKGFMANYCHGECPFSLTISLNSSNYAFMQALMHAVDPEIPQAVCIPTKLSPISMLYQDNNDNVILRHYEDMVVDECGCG
Description: (§1) Ligands were injected and allowed to flow over the captured receptor protein.

[4] = biological target: T4, BMP6 (UniProt P22004 382-513, limits assumed); assay: as above
T4 sequence (looked up): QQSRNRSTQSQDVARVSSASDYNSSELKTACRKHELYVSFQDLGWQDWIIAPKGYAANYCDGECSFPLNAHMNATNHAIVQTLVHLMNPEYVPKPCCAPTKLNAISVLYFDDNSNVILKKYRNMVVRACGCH
Description: as §1

[5] = biological target: T5, activin B (UniProt P09529 293-407); assay: as above
T5 sequence (looked up): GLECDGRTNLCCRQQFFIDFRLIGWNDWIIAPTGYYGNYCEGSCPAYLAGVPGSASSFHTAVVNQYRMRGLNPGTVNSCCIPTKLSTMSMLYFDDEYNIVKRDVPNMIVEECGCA
Description: as §1

[6] = biological target: T1, GDF11; assay: as above
Description: as §1

[7] = biological target: T2, activin A; assay: as above
Description: as §1

[8] = biological target: T6, GDF8 (UniProt O14793 267-375); assay: as above
T6 construct: also called myostatin
T6 sequence (looked up): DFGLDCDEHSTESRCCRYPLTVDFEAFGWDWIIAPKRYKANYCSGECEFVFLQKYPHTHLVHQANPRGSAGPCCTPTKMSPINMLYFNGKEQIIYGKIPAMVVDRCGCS
Description: as §1

[9] = biological target: T7, BMP10 (UniProt O95393 317-424); assay: as above
T7 sequence (looked up): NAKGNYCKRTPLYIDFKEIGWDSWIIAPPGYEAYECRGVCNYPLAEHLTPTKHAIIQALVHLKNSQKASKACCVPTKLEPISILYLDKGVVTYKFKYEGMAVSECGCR
Description: as §1

[10] = biological target: T8, BMP9 (UniProt Q9UK05 320-429); assay: Biacore SPR; receptor-Fc captured by anti-Fc antibody, ligand injected; transient interaction
T8 construct: also called GDF2
T8 sequence (looked up): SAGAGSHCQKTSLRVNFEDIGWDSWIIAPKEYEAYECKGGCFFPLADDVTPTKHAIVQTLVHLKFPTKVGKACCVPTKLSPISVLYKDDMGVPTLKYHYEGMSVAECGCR

GDF11 Inhibition Activity, KI (A-204 CAGA12 luciferase reporter gene assay) [1]: 1000 nM
Activin Inhibition Activity, KI (A-204 CAGA12 luciferase reporter gene assay) [2]: 1000 nM
Molecule: ActRIIB-Fc A64 (20-134) (from UniProt Q13705 20-134) (Fc fusion)

Kd [3]: 4.9 nM
koff [3]: 0.017 s⁻¹
kon [3]: 3.4e+06 M⁻¹ s⁻¹
Kd [4]: 2.7 nM
koff [4]: 0.0055 s⁻¹
kon [4]: 2e+06 M⁻¹ s⁻¹
Kd [5]: 0.006 nM
koff [5]: 4e-05 s⁻¹
kon [5]: 7.1e+06 M⁻¹ s⁻¹
Kd [6]: 0.003 nM
koff [6]: 0.00011 s⁻¹
kon [6]: 3.8e+07 M⁻¹ s⁻¹
Kd [7]: 0.012 nM
koff [7]: 0.00015 s⁻¹
kon [7]: 1.3e+07 M⁻¹ s⁻¹
Kd [8]: 0.55 nM
koff [8]: 0.00021 s⁻¹
kon [8]: 390000 M⁻¹ s⁻¹
Kd [9]: 0.074 nM
koff [9]: 0.0041 s⁻¹
kon [9]: 5.6e+07 M⁻¹ s⁻¹
Kd [10]: 3.4 nM
B1: ALK4-Fc:ActRIIB-Fc heterodimer (Fc fusion)
chain 1: SGPRGVQALLCACTSCLQANYTCETDGACMVSIFNLDGMEHHVRTCIPKVELVPAGKPFYCLSSEDLRNTHCCYTDYCNRIDLRVPSGHLKEPEHPSMWGPVE
chain 2: GRGEAETRECIYYNANWELERTNQSGLERCEGEQDKRLHCYASWRNSSGTIELVKKGCWLDDFNCYDRQECVATEENPQVYFCCCEGNFCNERFTHLPEAGGPEVTYEPPPTAPT
